{"source": "patent US10800813", "about": "(Bicycle, dated 2020)", "note": "Numbered stars: 1 amine (or outer) side, 2 acyl side, 3 side chain; on linkers, the order of the positions; unused ones are H or OH. Bridge positions count the residues as written; N and C are the ends. Ends that are not written are not given here. TBMB = c1c(C[*:1])cc(C[*:3])cc1C[*:2]", "data": [{"target": "T1, biotinylated human plasma Kallikrein (human, UniProt P03952 20-638, biotinylated)", "T1 construct": "also called Biotinylated hPK", "T1 sequence (P03952 20-638 limits assumed)": "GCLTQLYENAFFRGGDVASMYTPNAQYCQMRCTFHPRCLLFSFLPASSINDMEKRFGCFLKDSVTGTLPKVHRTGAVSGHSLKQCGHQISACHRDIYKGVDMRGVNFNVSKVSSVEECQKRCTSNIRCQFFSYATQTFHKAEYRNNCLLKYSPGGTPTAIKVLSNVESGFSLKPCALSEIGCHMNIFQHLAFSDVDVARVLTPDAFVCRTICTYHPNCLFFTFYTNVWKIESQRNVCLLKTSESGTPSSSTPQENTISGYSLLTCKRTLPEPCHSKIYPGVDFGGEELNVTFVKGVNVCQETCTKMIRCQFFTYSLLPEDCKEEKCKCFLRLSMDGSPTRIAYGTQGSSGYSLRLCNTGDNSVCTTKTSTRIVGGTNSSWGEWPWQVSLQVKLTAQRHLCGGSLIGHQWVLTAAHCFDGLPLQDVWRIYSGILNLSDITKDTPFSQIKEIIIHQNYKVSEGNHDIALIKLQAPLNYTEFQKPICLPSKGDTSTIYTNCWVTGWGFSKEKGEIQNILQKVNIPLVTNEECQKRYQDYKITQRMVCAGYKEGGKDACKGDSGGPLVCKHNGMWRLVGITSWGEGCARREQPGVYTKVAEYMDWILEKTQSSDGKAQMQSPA", "assay": "phage binding assay, signal:background", "experimental": "Library transformant colonies, or selection output colonies, were picked and grown as individual cultures in 2TY broth containing selective antibiotic. The picked colonies were DNA-sequenced using a QIAgen PyroMark Q96 DNA sequencer to reveal the amino-acid substitution present in each clone, and were assayed for human plasma Kallikrein binding as follows. The phage-containing supernatant was harvested from the culture and phage were cyclised with tris bromomethyl benzene(TBMB) based on the methods of Heinis et al (Nature Chemical Biology vol. 5 pp 502-507 (2009)). The purified phage from this process were assayed for binding to biotinylated human plasma Kallikrein using a homogeneous plate-based binding assay; assay read-out measured on a BMG Labtech Pherastar FS plate reader. The quantitative binding data from duplicate assay samples was averaged (mean) and expressed as signal:background. […] The assay data was correlated with the peptide sequences.\nSelections against human plasma Kallikrein were performed with this library in order to study the non-WPAR (SEQ ID NO: 18) determinants of Kallikrein binding, and to isolate the optimal WPAR (SEQ ID NO: 18)-containing peptide sequence.", "values": [{"binder": "CSWPARCVHQDMC (linker 1-7-13 via TBMB (inferred))", "note": "[SEQ ID NO 155]", "Binding assay signal": 61}, {"binder": "CDWPARCMHQEFC (linker 1-7-13 via TBMB (inferred))", "note": "[SEQ ID NO 152]", "Binding assay signal": 63}, {"binder": "CAWPARCTHQTMC (linker 1-7-13 via TBMB (inferred))", "note": "[SEQ ID NO 153]", "Binding assay signal": 61}, {"binder": "CQWPARCMHQDMC (linker 1-7-13 via TBMB (inferred))", "note": "[SEQ ID NO 131]", "Binding assay signal": 75}, {"binder": "CQWPARCMHQELC (linker 1-7-13 via TBMB (inferred))", "note": "[SEQ ID NO 135]", "Binding assay signal": 73}, {"binder": "CAWPARCLHADMC (linker 1-7-13 via TBMB (inferred))", "note": "[SEQ ID NO 150]", "Binding assay signal": 66}, {"binder": "CLWPARCLTTELC (linker 1-7-13 via TBMB (inferred))", "note": "[SEQ ID NO 157]", "Binding assay signal": 59}, {"binder": "CAWPARCLHQDWC (linker 1-7-13 via TBMB (inferred))", "note": "[SEQ ID NO 151]", "Binding assay signal": 63}, {"binder": "CTWPARCTHQAFC (linker 1-7-13 via TBMB)", "note": "[SEQ ID NO 160]", "Binding assay signal": 59}, {"binder": "CNWPARCTHQDLC (linker 1-7-13 via TBMB)", "note": "[SEQ ID NO 115]", "Binding assay signal": 116}, {"binder": "CTWPARCTHTDMC (linker 1-7-13 via TBMB (inferred))", "note": "[SEQ ID NO 148]", "Binding assay signal": 67}, {"binder": "CTWPARCTHTDLC (linker 1-7-13 via TBMB (inferred))", "note": "[SEQ ID NO 123]", "Binding assay signal": 88}, {"binder": "CTWPARCTHADLC (linker 1-7-13 via TBMB (inferred))", "note": "[SEQ ID NO 139]", "Binding assay signal": 71}, {"binder": "CAWPARCLHDDLC (linker 1-7-13 via TBMB (inferred))", "note": "[SEQ ID NO 125]", "Binding assay signal": 84}, {"binder": "CPWPARCTHQNLC (linker 1-7-13 via TBMB (inferred))", "note": "[SEQ ID NO 143]", "Binding assay signal": 69}, {"binder": "CSWPARCTHSDLC (linker 1-7-13 via TBMB)", "note": "[SEQ ID NO 161]", "Binding assay signal": 59}, {"binder": "CAWPARCTHADLC (linker 1-7-13 via TBMB (inferred))", "note": "[SEQ ID NO 130]", "Binding assay signal": 79}, {"binder": "CLWPARCTHQDLC (linker 1-7-13 via TBMB (inferred))", "note": "[SEQ ID NO 122]", "Binding assay signal": 90}, {"binder": "CHWPARCTHQDLC (linker 1-7-13 via TBMB)", "note": "[SEQ ID NO 116]", "Binding assay signal": 110}, {"binder": "CLWPARCTHADLC (linker 1-7-13 via TBMB (inferred))", "note": "[SEQ ID NO 133]", "Binding assay signal": 74}, {"binder": "CSWPARCTHADLC (linker 1-7-13 via TBMB)", "note": "[SEQ ID NO 118]", "Binding assay signal": 100}, {"binder": "CAWPARCTHYDLC (linker 1-7-13 via TBMB (inferred))", "note": "[SEQ ID NO 142]", "Binding assay signal": 70}, {"binder": "CVWPARCTHQDLC (linker 1-7-13 via TBMB (inferred))", "note": "[SEQ ID NO 138]", "Binding assay signal": 71}, {"binder": "CQWPARCTHSDLC (linker 1-7-13 via TBMB (inferred))", "note": "[SEQ ID NO 132]", "Binding assay signal": 74}, {"binder": "CSWPARCLHTELC (linker 1-7-13 via TBMB (inferred))", "note": "[SEQ ID NO 146]", "Binding assay signal": 68}, {"binder": "CEWPARCLHTDLC (linker 1-7-13 via TBMB (inferred))", "note": "[SEQ ID NO 156]", "Binding assay signal": 60}, {"binder": "CAWPARCTHTDLC (linker 1-7-13 via TBMB (inferred))", "note": "[SEQ ID NO 120]", "Binding assay signal": 92}, {"binder": "CAWPARCMHDDLC (linker 1-7-13 via TBMB (inferred))", "note": "[SEQ ID NO 145]", "Binding assay signal": 69}, {"binder": "CSWPARCIHQDLC (linker 1-7-13 via TBMB (inferred))", "note": "[SEQ ID NO 147]", "Binding assay signal": 68}, {"binder": "CPWPARCTHQDLC (linker 1-7-13 via TBMB)", "note": "[SEQ ID NO 117]", "Binding assay signal": 107}, {"binder": "CRWPARCTHQDLC (linker 1-7-13 via TBMB (inferred))", "note": "[SEQ ID NO 134]", "Binding assay signal": 73}, {"binder": "CQWPARCLHTDLC (linker 1-7-13 via TBMB (inferred))", "note": "[SEQ ID NO 121]", "Binding assay signal": 91}, {"binder": "CAWPARCTHTDFC (linker 1-7-13 via TBMB (inferred))", "note": "[SEQ ID NO 128]", "Binding assay signal": 80}, {"binder": "CSWPARCTHDDLC (linker 1-7-13 via TBMB (inferred))", "note": "[SEQ ID NO 119]", "Binding assay signal": 93}, {"binder": "CAWPARCTHTHLC (linker 1-7-13 via TBMB (inferred))", "note": "[SEQ ID NO 149]", "Binding assay signal": 66}, {"binder": "CSWPARCTHSHLC (linker 1-7-13 via TBMB (inferred))", "note": "[SEQ ID NO 137]", "Binding assay signal": 72}, {"binder": "CHWPARCTHQELC (linker 1-7-13 via TBMB (inferred))", "note": "[SEQ ID NO 124]", "Binding assay signal": 85}, {"binder": "CPWPARCLHTDLC (linker 1-7-13 via TBMB)", "note": "[SEQ ID NO 163]", "Binding assay signal": 58}, {"binder": "CRWPARCTHTDLC (linker 1-7-13 via TBMB)", "note": "[SEQ ID NO 159]", "Binding assay signal": 59}, {"binder": "CSWPARCLHDDLC (linker 1-7-13 via TBMB)", "note": "[SEQ ID NO 162]", "Binding assay signal": 59}, {"binder": "CAWPARCTHVDLC (linker 1-7-13 via TBMB (inferred))", "note": "[SEQ ID NO 127]", "Binding assay signal": 82}, {"binder": "CSWPARCLHTDLC (linker 1-7-13 via TBMB (inferred))", "note": "[SEQ ID NO 126]", "Binding assay signal": 83}, {"binder": "CSWPARCTHTELC (linker 1-7-13 via TBMB (inferred))", "note": "[SEQ ID NO 144]", "Binding assay signal": 69}, {"binder": "CPWPARCTHTDLC (linker 1-7-13 via TBMB (inferred))", "note": "[SEQ ID NO 141]", "Binding assay signal": 70}, {"binder": "CMWPARCMHQDLC (linker 1-7-13 via TBMB (inferred))", "note": "[SEQ ID NO 129]", "Binding assay signal": 79}, {"binder": "CHWPARCMHQDLC (linker 1-7-13 via TBMB (inferred))", "note": "[SEQ ID NO 140]", "Binding assay signal": 71}, {"binder": "CTWPARCLHQDLC (linker 1-7-13 via TBMB (inferred))", "note": "[SEQ ID NO 136]", "Binding assay signal": 73}, {"binder": "CSWPARCTHAEMC (linker 1-7-13 via TBMB (inferred))", "note": "[SEQ ID NO 158]", "Binding assay signal": 59}, {"binder": "CTWPARCLHQHMC (linker 1-7-13 via TBMB (inferred))", "note": "[SEQ ID NO 154]", "Binding assay signal": 61}]}]}
